Experimental findings from paper PMC2120187 are described below.

For the experiment, the target named is murine IgG heavy chain (murine). Kind of experiment: immunoprecipitation with anti-mouse IgG and non-reducing SDS-PAGE.

Regarding murine IgG heavy chain, the stoichiometry N worked out at 2.

A word on the stoichiometry N: it is a count of units in the complex or per binding partner.
